Results from patent US20210130436A1.

Tests used:
Assay in all cases: cell-based or functional assay
[1] = target: CD28 on Jurkat/IL2 reporter cells (human) (UniProt P10747)
[2] = target: PD-L1 on K562/OKT3/PD-L1 artificial antigen presenting cells (UniProt Q9NZQ7)
[3] = target: PD-1 (PDCD1) (Homo sapiens (Human)) (UniProt Q15116)
CD28 (human) = CD28 (human) (UniProt P10747)
PD-L1 (human) = PD-L1 (human) (UniProt Q9NZQ7)
PD-L1 (human), sequence (Q9NZQ7 19-290): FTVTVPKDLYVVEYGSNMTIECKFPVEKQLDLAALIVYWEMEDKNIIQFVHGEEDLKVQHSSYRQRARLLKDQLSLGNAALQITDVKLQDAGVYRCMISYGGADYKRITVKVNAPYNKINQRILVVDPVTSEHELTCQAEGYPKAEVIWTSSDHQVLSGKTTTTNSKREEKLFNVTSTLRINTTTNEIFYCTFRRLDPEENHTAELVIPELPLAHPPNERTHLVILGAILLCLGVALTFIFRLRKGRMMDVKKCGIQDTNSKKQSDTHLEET

PD-1 (PDCD1) (Homo sapiens (Human)), sequence (Q15116 21-288): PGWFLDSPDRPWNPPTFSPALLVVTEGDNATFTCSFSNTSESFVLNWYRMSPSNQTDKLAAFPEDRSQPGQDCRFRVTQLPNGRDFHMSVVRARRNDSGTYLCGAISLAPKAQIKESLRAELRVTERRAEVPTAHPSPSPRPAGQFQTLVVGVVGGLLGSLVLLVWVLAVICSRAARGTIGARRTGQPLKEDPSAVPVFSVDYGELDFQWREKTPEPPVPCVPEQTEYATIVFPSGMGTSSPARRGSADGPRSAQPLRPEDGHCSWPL
PD-L1 on K562/OKT3/PD-L1 artificial antigen presenting cells, sequence (Q9NZQ7 19-290): as the sequence (Q9NZQ7 19-290) above

Row | Substance | Fold Increase over WT CD80-IgV-Fc (RLU, Jurkat/IL2 + K562/OKT3/PD-L1 reporter assay, 50 nM) [1] | Relative Luciferase Units (RLU), Jurkat/IL2 + K562/OKT3/PD-L1 reporter assay, CD80-Fc Conc 50 nM [1] | Fold Increase over WT CD80-IgV-Fc (RLU, Jurkat/IL2 + K562/OKT3/PD-L1 reporter assay, 50 nM) [2] | Relative Luciferase Units (RLU), Jurkat/IL2 + K562/OKT3/PD-L1 reporter assay, CD80-Fc Conc 50 nM [2] | further results
1 | CD80 A26E/E35D/M47L/A71G IgV-Fc (inert) (Fc fusion) | 8.5 fold | 1750 RLU | 8.5 fold | 1750 RLU | 
2 | CD80 E35D/D46E/M47V/A71D IgV-Fc (inert) (Fc fusion) | 3.3 fold | 683 RLU | 3.3 fold | 683 RLU | 
3 | CD80 E35D/D46E/M47V/A71D/D90G IgV-Fc (inert) (Fc fusion) | 5.1 fold | 1040 RLU | 5.1 fold | 1040 RLU | 
4 | CD80 E35D/D46V/M47L/V68M/L85Q/E88D IgV-Fc (inert) (Fc fusion) | 7.1 fold | 1460 RLU | 7.1 fold | 1460 RLU | 
5 | CD80 E35D/K37E/M47V/N48D/L85Q/D90N IgV-Fc (inert) (Fc fusion) | 4.1 fold | 851 RLU | 4.1 fold | 851 RLU | 
6 | CD80 E35D/M38T/D46E/M47V/N48S IgV-Fc (inert) (Fc fusion) | 6.4 fold | 1320 RLU | 6.4 fold | 1320 RLU | 
7 | CD80 E35D/M38T/M43V/M47V/N48R/L85Q IgV-Fc (inert) (Fc fusion) | 3.3 fold | 680 RLU | 3.3 fold | 680 RLU | 
8 | CD80 E35D/M47L/A71G/L85M/F92Y IgV-Fc (inert) (Fc fusion) | 6.4 fold | 1320 RLU | 6.4 fold | 1320 RLU | 
9 | CD80 E35D/M47V/A71G/E88D IgV-Fc (inert) (Fc fusion) | 5.9 fold | 1220 RLU | 5.9 fold | 1220 RLU | 
10 | CD80 E35D/M47V/N48T/L85Q IgV-Fc (inert) (Fc fusion) | 4.4 fold | 897 RLU | 4.4 fold | 897 RLU | 
11 | CD80 E35D/T41S/M43I/A71G/D90G IgV-Fc (inert) (Fc fusion) | 5.4 fold | 1120 RLU | 5.4 fold | 1120 RLU | 
12 | CD80 E35D/T41S/M43I/M47L/A71G IgV-Fc (inert) (Fc fusion) | 7.5 fold | 1540 RLU | 7.5 fold | 1540 RLU | 
13 | CD80 E35D/T41S/M43I/M47V/A71G IgV-Fc (inert) (Fc fusion) | 6.2 fold | 1270 RLU | 6.2 fold | 1270 RLU | 
14 | CD80 E35D/T41S/M43V/M47I/L70M/A71G IgV-Fc (inert) (Fc fusion) | 8.1 fold | 1670 RLU | 8.1 fold | 1670 RLU | 
15 | CD80 E35D/T41S/M47V/A71G/K89N IgV-Fc (inert) (Fc fusion) | 5 fold | 1020 RLU | 5 fold | 1020 RLU | 
16 | CD80 E35D/T41S/M47V/L97Q IgV-Fc (inert) (Fc fusion) | 2.9 fold | 594 RLU | 2.9 fold | 594 RLU | 
17 | CD80 E35D/Y53H/A71G/D90G/L97R IgV-Fc (inert) (Fc fusion) | 8.4 fold | 1720 RLU | 8.4 fold | 1720 RLU | 
18 | CD80 H18Y/A26E/E35D/M47L/L85Q/D90G IgV-Fc (inert) (Fc fusion) | 7.3 fold | 1510 RLU | 7.3 fold | 1510 RLU | 
19 | CD80 I30V/E35D/M47V/A71G/A91V IgV-Fc (inert) (Fc fusion) | 7.3 fold | 1500 RLU | 7.3 fold | 1500 RLU | 
20 | CD80 Q27H/E35D/D46V/M47L/A71G IgV-Fc (inert) (Fc fusion) | 4.7 fold | 978 RLU | 4.7 fold | 978 RLU | 
21 | CD80 Q27H/E35D/M47I/L85Q/D90G IgV-Fc (inert) (Fc fusion) | 6.4 fold | 1310 RLU | 6.4 fold | 1310 RLU | 
22 | CD80 V22D/E35D/M47L/L70M/L97Q IgV-Fc (inert) (Fc fusion) | 7.5 fold | 1540 RLU | 7.5 fold | 1540 RLU | 
23 | CD80 V22D/E35D/M47L/L85Q IgV-Fc (inert) (Fc fusion) | 5.5 fold | 1140 RLU | 5.5 fold | 1140 RLU | 
24 | CD80 V22L/Q27H/E35D/M47I/A71G IgV-Fc (inert) (Fc fusion) | 5.5 fold | 1120 RLU | 5.5 fold | 1120 RLU | 
25 | PD-L2 E44D IgV-Fc (from UniProt Q9BQ51 20-121) (Fc fusion) |  |  |  |  | IFN gamma levels pg/mL (MLR) [3]: 1500 pg/mL
26 | PD-L2 E44D/S67L/Q72H/Q82R/V89D IgV-Fc (from UniProt Q9BQ51 20-121) (Fc fusion) |  |  |  |  | IFN gamma levels pg/mL (MLR) [3]: 1280 pg/mL
27 | PD-L2 E59G/Q82R IgV-Fc (from UniProt Q9BQ51 20-121) (Fc fusion) |  |  |  |  | IFN gamma levels pg/mL (MLR) [3]: 1510 pg/mL
28 | variant CD80 IgV-Fc (inert) E35D/M47I/L70M (Fc fusion) |  |  |  |  | IL-2-luciferase RLU, Jurkat + CHO/OKT3/PD-L1 aAPC, 0.6 nM (CD28 (human)): 1000 RLU; IL-2-luciferase RLU, Jurkat + CHO/OKT3/PD-L1 aAPC, 1.9 nM (CD28 (human)): 1640 RLU; IL-2-luciferase RLU, Jurkat + CHO/OKT3/PD-L1 aAPC, 5.6 nM (CD28 (human)): 2350 RLU; IL-2-luciferase RLU, Jurkat + CHO/OKT3/PD-L1 aAPC, 16.7 nM (CD28 (human)): 2630 RLU; IL-2-luciferase RLU, Jurkat + CHO/OKT3/PD-L1 aAPC, 50 nM (CD28 (human)): 2630 RLU; IL-2-luciferase RLU, Jurkat + CHO/OKT3 aAPC (no PD-L1), 5.6 nM (CD28 (human)): 549 RLU; IL-2-luciferase RLU, Jurkat + CHO/OKT3 aAPC (no PD-L1), 16.7 nM (CD28 (human)): 544 RLU; IL-2-luciferase RLU, Jurkat + CHO/OKT3 aAPC (no PD-L1), 50 nM (CD28 (human)): 600 RLU; IL-2 release, primary T cells; K562/OKT3/PD-L1; 1 nM (PD-L1 (human)): 311; IL-2 release, primary T cells; K562/OKT3/PD-L1; 10 nM (PD-L1 (human)): 6980; IL-2 release, primary T cells; K562/OKT3/PD-L1; 100 nM (PD-L1 (human)): 8390
29 | variant CD80 IgV-Fc (inert) E35D/M47L (Fc fusion) |  |  |  |  | IL-2-luciferase RLU, Jurkat + CHO/OKT3/PD-L1 aAPC, 0.6 nM (CD28 (human)): 1040 RLU; IL-2-luciferase RLU, Jurkat + CHO/OKT3/PD-L1 aAPC, 1.9 nM (CD28 (human)): 1730 RLU; IL-2-luciferase RLU, Jurkat + CHO/OKT3/PD-L1 aAPC, 5.6 nM (CD28 (human)): 2580 RLU; IL-2-luciferase RLU, Jurkat + CHO/OKT3/PD-L1 aAPC, 16.7 nM (CD28 (human)): 3070 RLU; IL-2-luciferase RLU, Jurkat + CHO/OKT3 aAPC (no PD-L1), 5.6 nM (CD28 (human)): 633 RLU; IL-2-luciferase RLU, Jurkat + CHO/OKT3 aAPC (no PD-L1), 16.7 nM (CD28 (human)): 731 RLU; IL-2-luciferase RLU, Jurkat + CHO/OKT3 aAPC (no PD-L1), 50 nM (CD28 (human)): 817 RLU; IL-2 release, primary T cells; K562/OKT3/PD-L1; 1 nM (PD-L1 (human)): 268; IL-2 release, primary T cells; K562/OKT3/PD-L1; 10 nM (PD-L1 (human)): 2700; IL-2 release, primary T cells; K562/OKT3/PD-L1; 100 nM (PD-L1 (human)): 7530
30 | variant CD80 IgV-Fc (inert) E35G/K54E/A71D/L72P (Fc fusion) |  |  |  |  | IL-2-luciferase RLU, Jurkat + CHO/OKT3/PD-L1 aAPC, 0.6 nM (CD28 (human)): 529 RLU; IL-2-luciferase RLU, Jurkat + CHO/OKT3/PD-L1 aAPC, 1.9 nM (CD28 (human)): 489 RLU; IL-2-luciferase RLU, Jurkat + CHO/OKT3/PD-L1 aAPC, 5.6 nM (CD28 (human)): 554 RLU; IL-2-luciferase RLU, Jurkat + CHO/OKT3/PD-L1 aAPC, 16.7 nM (CD28 (human)): 504 RLU; IL-2-luciferase RLU, Jurkat + CHO/OKT3/PD-L1 aAPC, 50 nM (CD28 (human)): 476 RLU; IL-2-luciferase RLU, Jurkat + CHO/OKT3 aAPC (no PD-L1), 5.6 nM (CD28 (human)): 417 RLU; IL-2-luciferase RLU, Jurkat + CHO/OKT3 aAPC (no PD-L1), 16.7 nM (CD28 (human)): 475 RLU; IL-2-luciferase RLU, Jurkat + CHO/OKT3 aAPC (no PD-L1), 50 nM (CD28 (human)): 440 RLU; IL-2 release, primary T cells; K562/OKT3/PD-L1; 100 nM (PD-L1 (human)): 59
